Results: PMC7229837, “Molecular architecture of the DNA-binding sites of the P-loop ATPases MipZ and ParA from Caulobacter crescentus”

Assays:
Experiment in all cases: MST; low-affinity group, KD >> 10 uM; EMSA: 10 mM HEPES/NaOH pH 7.2, 150 mM NaCl, 10 mM MgCl2, 0.05% Tween 20, 0.46 mM ATPgS, room temp; BLI: 50 mM HEPES/NaOH pH 7.2, 50 mM NaCl, 5 mM MgCl2, 0.1 mM
MipZ R219A = molecular target: T1, MipZ R219A (Caulobacter crescentus, UniProt Q9A6C9 1-278, R219A); conditions: protein: recombinant; tags: C-terminal His6 (pET21a); chain copies: 2; label: Cy3 (5') on strand 1; blunt
T1 sequence: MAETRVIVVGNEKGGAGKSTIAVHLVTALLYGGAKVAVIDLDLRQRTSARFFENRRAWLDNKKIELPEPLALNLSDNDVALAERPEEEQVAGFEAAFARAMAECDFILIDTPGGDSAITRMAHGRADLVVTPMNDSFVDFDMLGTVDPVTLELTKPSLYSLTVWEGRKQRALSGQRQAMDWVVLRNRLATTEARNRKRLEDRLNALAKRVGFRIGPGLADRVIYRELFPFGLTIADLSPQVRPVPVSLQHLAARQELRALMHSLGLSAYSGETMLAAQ

MipZ R242A = molecular target: T2, MipZ R242A (Caulobacter crescentus, UniProt Q9A6C9 1-278, R242A); conditions: protein: recombinant; tags: C-terminal His6 (pET21a); chain copies: 2; label: Cy3 (5') on strand 1; blunt
T2 sequence: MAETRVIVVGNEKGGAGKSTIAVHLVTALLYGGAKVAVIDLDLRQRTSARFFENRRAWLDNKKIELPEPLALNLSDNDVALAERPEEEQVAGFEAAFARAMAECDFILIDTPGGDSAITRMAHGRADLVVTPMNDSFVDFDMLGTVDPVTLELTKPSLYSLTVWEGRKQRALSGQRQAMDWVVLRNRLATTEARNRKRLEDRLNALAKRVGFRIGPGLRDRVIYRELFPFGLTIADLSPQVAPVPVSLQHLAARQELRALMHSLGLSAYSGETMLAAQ

MipZ L237A = molecular target: T3, MipZ L237A (Caulobacter crescentus, UniProt Q9A6C9 1-278, L237A); conditions: protein: recombinant; tags: C-terminal His6 (pET21a); chain copies: 2; label: Cy3 (5') on strand 1; blunt
T3 sequence: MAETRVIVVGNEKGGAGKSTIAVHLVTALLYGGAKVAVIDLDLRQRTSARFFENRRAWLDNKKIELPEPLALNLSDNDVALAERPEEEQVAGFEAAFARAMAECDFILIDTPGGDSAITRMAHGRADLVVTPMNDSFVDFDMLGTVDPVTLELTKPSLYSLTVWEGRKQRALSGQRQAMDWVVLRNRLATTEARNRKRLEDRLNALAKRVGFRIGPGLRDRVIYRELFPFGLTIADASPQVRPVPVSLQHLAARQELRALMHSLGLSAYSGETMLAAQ

MipZ K197A = molecular target: T4, MipZ K197A (Caulobacter crescentus, UniProt Q9A6C9 1-278, K197A); conditions: protein: recombinant; tags: C-terminal His6 (pET21a); chain copies: 2; label: Cy3 (5') on strand 1; blunt
T4 sequence: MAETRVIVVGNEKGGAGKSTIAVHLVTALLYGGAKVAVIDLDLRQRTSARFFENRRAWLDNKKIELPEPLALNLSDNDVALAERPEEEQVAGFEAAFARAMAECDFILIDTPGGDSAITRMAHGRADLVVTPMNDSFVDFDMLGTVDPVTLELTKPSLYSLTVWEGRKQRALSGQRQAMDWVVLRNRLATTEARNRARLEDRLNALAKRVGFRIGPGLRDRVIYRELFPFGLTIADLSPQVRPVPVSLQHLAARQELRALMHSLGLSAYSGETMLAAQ

MipZ K13A = molecular target: T5, MipZ K13A (Caulobacter crescentus, UniProt Q9A6C9 1-278, K13A); conditions: protein: recombinant; tags: C-terminal His6 (pET21a); label: Cy3 (5') on strand 1; blunt
T5 sequence: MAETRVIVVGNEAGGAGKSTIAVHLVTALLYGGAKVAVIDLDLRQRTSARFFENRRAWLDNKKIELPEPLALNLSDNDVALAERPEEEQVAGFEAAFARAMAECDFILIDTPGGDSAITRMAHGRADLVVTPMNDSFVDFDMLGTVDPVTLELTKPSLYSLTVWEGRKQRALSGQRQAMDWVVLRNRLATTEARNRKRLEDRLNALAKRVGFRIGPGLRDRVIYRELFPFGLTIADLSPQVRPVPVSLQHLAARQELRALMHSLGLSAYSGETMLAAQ

MipZ R196A = molecular target: T6, MipZ R196A (Caulobacter crescentus, UniProt Q9A6C9 1-278, R196A); conditions: protein: recombinant; tags: C-terminal His6 (pET21a); chain copies: 2; label: Cy3 (5') on strand 1; blunt
T6 sequence: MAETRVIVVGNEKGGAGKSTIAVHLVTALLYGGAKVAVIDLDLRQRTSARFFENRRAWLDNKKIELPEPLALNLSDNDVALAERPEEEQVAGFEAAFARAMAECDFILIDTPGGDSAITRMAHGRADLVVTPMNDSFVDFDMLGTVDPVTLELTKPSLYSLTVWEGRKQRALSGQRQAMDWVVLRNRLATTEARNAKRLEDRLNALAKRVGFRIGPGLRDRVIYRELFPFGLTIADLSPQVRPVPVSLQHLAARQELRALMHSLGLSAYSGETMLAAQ

Measured: Kd

B1: rand-Cy3/rand-rev 26 bp (dsDNA)
DNA 1: GAGGCAGACTAGATCTTCTAGTTCGG
DNA 2: CCGAACTAGAAGATCTAGTCTGCCTC
> 10 µM: all assays above
